In this data set the test system is MS2 coat protein. In words: apparent KD of MS2 coat protein; designed switch direction (-1 OFF switch, 1 ON switch): 1; higher = weaker reporter binding. The gist of the method: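 Designed RNA switches sharing common flanks were transcribed on Illumina chips by stalled E. coli RNA polymerase. They were titrated with SNAP-549-labelled MS2 coat protein, from 0.7 or 1.5 nM doubling to 3 µM, in Tris-HCl pH 7.5 buffer with KCl, MgCl2, BSA, DTT, tRNA and Tween-20. Titrations ran without input, with 200 uM small-molecule ligand, or with an oligonucleotide input. The apparent KD of each design is the median over its clusters, after curve-fitting of normalised cluster fluorescence.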

[1] abbreviates: input ligand: microRNA oligo, concentration not stated.
Where [2] appears, read: Eterna round: R95, input ligand: FMN 200 uM.
The mark [3] stands for this setting: Eterna round: R95, input ligand: microRNA oligo, concentration not stated.
Where [4] appears, read: Eterna round: R95, input ligand: none.

The values below come from the supplement of paper PMC9170038.

As for “ACAUGAGACCUAGGAUAUGUUGUACCUACAUGUGACAUGAGGAUCACCCAUGUGGUAAGUAUGAGACAGAAGGAGGAGAUAUGU [Equivalence 28 - Jieux - Same State NG 2] (Eterna round: R96, puzzle: Same State NG 2)”, the “apparent KD of MS2 coat protein” value came out at 0.0128 µM (input ligand: FMN 200 uM), 0.0212 µM under setting [1] and 0.032 µM (input ligand: none).
Consider “ACAUGAGAGAAAGGAUAUCUUGUACCUACAUGUGACAUGAGGAUCACCCAUGUGGUAAGUAUGAGAGAGAAGGUUCAGAUAUGU [Equivalence 33 - Jieux - Same State NG 2] (Eterna round: R96, puzzle: Same State NG 2)”, for which the “apparent KD of MS2 coat protein” value came out at 0.0159 µM (input ligand: FMN 200 uM), 0.0258 µM under setting [1] and 0.0298 µM (input ligand: none).
Taken in the same sequence, the figures for “ACAUGAGAGAAAGGAUAUGGUGUACCUACAUGUGACAUGAGGAUCACCCAUGUGGUAAGUAUGACUCAGAAGGUUCAGAUAUGU [Equivalance 73 - Jieux - Same State NG 2] (Eterna round: R96, puzzle: Same State NG 2)” were 0.0169 µM, 0.0656 µM and 0.126 µM.
In the same order, the values of “ACAUGAGAGAUAGGAUAUCUUGUACCUACAUGUGACAUGAGGAUCACCCAUGUGGUAAGUAUGACAGAGAAGGAUCAGAUAUGU [Equivalance 70 - Jieux - Same State NG 2] (Eterna round: R96, puzzle: Same State NG 2)” are 0.0205 µM, 0.0628 µM and 0.0824 µM.
Taken in the same sequence, the figures for “ACAUGAGAGAUAGGAUAUUUUGUACCUACAUGUGACAUGAGGAUCACCCAUGUGGUAAGUAUGAGAAAGAAGGAUCAGAUAUGU [Equivalance 52 - Jieux - Same State NG 2] (Eterna round: R96, puzzle: Same State NG 2)” were 0.0263 µM, 0.0637 µM and 0.0798 µM.
“ACAUGAGAGUCAGGAUAUAUUGUACCUACAUGUGACAUGAGGAUCACCCAUGUGGUAAGUAUGACAUAGAAGGGAUAGAUAUGU [Equivalance 85 - Jieux - Same State NG 2] (Eterna round: R96, puzzle: Same State NG 2)”: the “apparent KD of MS2 coat protein” value worked out at 0.0627 µM (input ligand: FMN 200 uM), 0.0604 µM under setting [1] and 0.0792 µM (input ligand: none).
For the sequence “ACAUGAGAGUUAGGAUAUCUUGUACCUACAUGUGACAUGAGGAUCACCCAUGUGGUAAGUAUGAGGGAGAAGGAACAGAUAUGU [Equivalence 43 - Jieux - Same State NG 2] (Eterna round: R96, puzzle: Same State NG 2)”, under setting [1], the “apparent KD of MS2 coat protein” value stood at 0.0273 µM.
Take “ACAUGAGAUAGAGGAUAUAUUGUACCUACAUGUGACAUGAGGAUCACCCAUGUGGUAAGUAUGACAUAGAAGGCUAAGAUAUGU [Equivalance 82 - Jieux - Same State NG 2] (Eterna round: R96, puzzle: Same State NG 2)”: the “apparent KD of MS2 coat protein” value stood at 0.0287 µM (input ligand: FMN 200 uM), 0.0556 µM under setting [1] and 0.0739 µM (input ligand: none).
Taken in the same sequence, the figures for “ACAUGAGAUUGAGGAUAUAUAGUACCUACAUGUGACAUGAGGAUCACCCAUGUGGUAAGUAUGACAUAGAAGGCAAAGAUAUGU [Equivalance 99 - Jieux - Same State NG 2] (Eterna round: R96, puzzle: Same State NG 2)” were 0.035 µM, 0.0376 µM and 0.0506 µM.
In the same order, the values of “ACAUGAGGAUCACCCAUGUAUGCUCAGGAAACUGUGCAUCAUGAGGAUAUGGAUCCUAAUUGGAUCCAGAAGGCAUGUAUUAUU [Fiskers NG3ss - 28] (Eterna round: R96, puzzle: Same State NG 3)” are 0.699 µM, 0.0391 µM and 0.045 µM.
In the same order, the values of “ACAUUUAGCUCGUGCACAUGAGGAUCACCCAUGUUCGGUUCACAGGAUAUCUAGUCAAACGGAUUGGAGAAGGGUGGCAGGAGC [Gelegees] (Eterna round: R96, puzzle: Same State NG 3)” are 0.0357 µM, 0.128 µM and 0.215 µM.
For the sequence “ACCAAUCCAAUAAAACAAGCGUGCUCGUCACAUGAGGAUCACCCAUGUUUAAGCGCUGUUCCUAAUUCCUCAGCGCC [Isoreder] (puzzle: Sensor for hsa-mir-208a)”, the “apparent KD of MS2 coat protein” value amounted to 0.182 µM under setting [2], 0.0288 µM under setting [3] and 0.168 µM under setting [4].
Consider “ACCCAAAGUAUAUGGGAACAAGCUUUUUAACAUGAGGAUCACCCAUGUGCUCGUCUUAUAAGCAGUCGAAAGACUGC [Sensor 100 - 7] (puzzle: Sensor for hsa-mir-208a)”, for which the “apparent KD of MS2 coat protein” value worked out at 0.0651 µM under setting [2] and 0.069 µM under setting [4].
Turning to “ACCCAAGGUAUAUGGGAACAAGCUUUUUAACAUGAGGAUCACCCAUGUACUCGUCUUAUAAGCAGUCGAAAGACUGC [Sensor 100 - 6] (puzzle: Sensor for hsa-mir-208a)”, the “apparent KD of MS2 coat protein” value is 0.619 µM under setting [2], 0.0161 µM under setting [3] and 0.831 µM under setting [4].
As to “ACCUUGUGGGUAGGAUAUUUAGGAUAUGCGGAAGACUAAGUCUGUAGGUCACCUAACGCAGAAGGAGAGAAGGACCCUUCAGCA [pwkr ssNG2 2FMN + F9.31] (Eterna round: R96, puzzle: Same State NG 2)”, the “apparent KD of MS2 coat protein” value is, setting by setting: (input ligand: FMN 200 uM) 0.109 µM; under setting [1], 0.00366 µM; (input ligand: none) 0.00474 µM.
On to “ACGCAGCUGGGCUAGGAUAUCGGUGGUAAAACAUGAGGAUCACCCAUGUCCGAAGCUCGGACUUCCGAGAAGGAGCCCGGCUGCG [Soinraesar Omei Mod 9] (puzzle: Same State 2)”, for which the “apparent KD of MS2 coat protein” value reads like this: under setting [2], 0.0341 µM; under setting [3], 0.253 µM; under setting [4], 0.481 µM.
Turning to “ACGCUAGUCACAGGAUAUCCGAAAUAUAGCAAAGGAGAAGGGUGAUUAACAUGAGGAUCACCCAUGUAAAAGAAGAAAGAAGAU [Edargebi] (Eterna round: R96, puzzle: Same State NG 1)”, the “apparent KD of MS2 coat protein” value runs as follows: (input ligand: FMN 200 uM) 0.173 µM; under setting [1], 0.167 µM; (input ligand: none) 0.186 µM.
In the same order, the values of “ACUUAGUACAAUUUAGAUCUACAUGAGGAUCACCCAUGUACUGAGGAUAUCAGCUCGAUUAGAGCUGAGAAGGCAGUAGUACUA [SSNG3/9-A2] (Eterna round: R96, puzzle: Same State NG 3)” are 0.0333 µM, 0.035 µM and 0.0539 µM.
For the sequence “ACUUGCUUUUUGCUCAUUUUUUGUCCGUAACAUGAGGAUCACCCAUGUGUAGAUUAUGUGUUGUUUUUGAUACGUGA [JR_SHM208A_Sub068] (puzzle: Sensor for hsa-mir-208a)”, the “apparent KD of MS2 coat protein” value by setting is: under setting [2], 0.0299 µM; under setting [3], 0.0295 µM; under setting [4], 0.0346 µM.
Taken in the same sequence, the figures for “ACUUGCUUUUUGCUCGUAUAUUGUCCAUUACAUGAGGAUCACCCAUGUGUGUAUUGUGUAUUGUUUUUGAUACGUGC [JR_SHM208A_Sub071] (puzzle: Sensor for hsa-mir-208a)” were 0.243 µM, 0.0244 µM and 0.302 µM.
As to “ACUUGCUUUUUGCUCGUAUAUUGUCCGUUACAUGAGGAUCACCCAUGUGUGUAUUGUGUGUUGUUUUUGAUACGUGU [JR_SHM208A_Sub070] (puzzle: Sensor for hsa-mir-208a)”, the “apparent KD of MS2 coat protein” value runs as follows: under setting [2], 0.056 µM; under setting [3], 0.0628 µM; under setting [4], 0.0742 µM.
As for “AGAAAAGAAAGAAAGGAUAUACAGAAAAGAACAUGAGGAUCACCCAUGUAAGAAGAGGAGGGAGGGUAGAAGGUUCAAGAAAGAA [JR_SS2_Sub017] (puzzle: Same State 2)”, the “apparent KD of MS2 coat protein” value under setting [2] turned out to be 0.021 µM, the “apparent KD of MS2 coat protein” value under setting [3] came to 0.033 µM and the “apparent KD of MS2 coat protein” value under setting [4] stood at 0.0193 µM.
With “AGAAACAAAGGCUGAAAUAAUACAUGAGGAUCACCCAUGUCACAGGAUAUCCAGAUAAUAUUCGAGGAGAAGGGUGCAGCCAAC [Esanusdiat] (Eterna round: R96, puzzle: Same State NG 3)”, the “apparent KD of MS2 coat protein” value amounted to 0.0191 µM (input ligand: FMN 200 uM), 0.0596 µM under setting [1] and 0.0797 µM (input ligand: none).
As for “AGAAAGAAAACGCAGGAUAUGGAGCAUGAGACAUGAGGAUCACCCAUGUCAAAAGAAAAGAAGAACCAGAAGGGCGGGAAAGAAA [Default title] (puzzle: Same State 2)”, the “apparent KD of MS2 coat protein” value by setting is: under setting [2], 0.0185 µM; under setting [3], 0.0117 µM; under setting [4], 0.0156 µM.
For “AGAAGACAUGAGGAUCACCCAUGUACAUAAUGAGGAGAAUGGGAGGAUAUGCAGAGAGAGAGGGAGCAGAAGGUCCAGUAUGAA [Default title] (Eterna round: R96, puzzle: Same State NG 3)”, the “apparent KD of MS2 coat protein” value stood at 0.0444 µM (input ligand: FMN 200 uM), 0.0516 µM under setting [1] and 0.105 µM (input ligand: none).
Taken in the same sequence, the figures for “AGAGGAGGAGCAGGAUAUGCGAAGAAGAACGUGGCAGAAGGGUUCAUGCGAUGACAUGAGGAUCACCCAUGUACCGCGCGAGGA [AK SSNG1-V2-10] (Eterna round: R96, puzzle: Same State NG 1)” were 0.0644 µM, 0.0339 µM and 0.0626 µM.
With “AGAUAACAUGAGGAUCACCCAUGUCAACUAAGUCGAGGAUAUGGGCAUAUUAUAUUAGAACCAGAAGGCGAAUAGA [Mat - Same State 1 - Mod of UCT - D45] (puzzle: Same State 1)”, the “apparent KD of MS2 coat protein” value was 0.0126 µM under setting [2], 0.00403 µM under setting [3] and 0.0279 µM under setting [4].
